# Results taken from patent US20150344570A1 (published 2015).
# T1: FcγRIIb extracellular domain with C-terminal His tag (human, UniProt P31994 43-217)
# T1 construct: extracellular domain; also called FcgRIIb; 2b
# T1 sequence (looked up): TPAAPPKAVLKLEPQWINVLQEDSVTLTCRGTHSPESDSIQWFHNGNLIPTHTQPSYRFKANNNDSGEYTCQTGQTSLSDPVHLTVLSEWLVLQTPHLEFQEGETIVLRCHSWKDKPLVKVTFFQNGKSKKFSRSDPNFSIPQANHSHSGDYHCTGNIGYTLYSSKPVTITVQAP
# Biological target: T1, FcγRIIb extracellular domain with …
# Assay: SPR (Biacore), relative binding
# Procedure: Analysis of interaction between objective antibody and the FcγR was carried out using Biacore T100 (GE Healthcare). HBS-EP+ (GE Healthcare) was used as the running buffer, and the measurement temperature was set to 25° C. Chips produced by immobilizing the antigen peptide by the amine coupling method to a Series S Sencor Chip CM5 (GE Healthcare), or alternatively, chips produced by allowing preliminarily biotinylated antigen peptides to interact with and immobilize onto a Series S Sensor Chip SA (certified) (GE Healthcare) were used. Antibodies of interest were captured onto an antigen peptide-immobilized chip, and allowed to interact to each FcγR diluted with running buffer. To regenerate and repeatedly use the chip, the antibodies captured on the chip were washed off by reacting 10 mM glycine-HCl, pH 1.5.
binder,measurement,value
"GpH7-B3 variant S239_10E/GpL16-k0 (antibody, human IgG1, kappa, also called Ho Ab S239_10E) heavy: not shown light: DIVMTQSPLSLPVTPGEPASISCQASESLVHSNRNTYLHWYLQKPGQSPQLLIYKVSNRFSGVPDRFSGSGSGTDFTLKISRVEAEDVGVYYCSQNTHVPPTFGQGTKVEIERTVAAPSVFIFPPSDEQLKSGTASVVCLLNNFYPREAKVQWKVDNALQSGNSQESVTEQDSKDSTYSLSSTLTLSKADYEKHKVYACEVTHQGLSSPVTKSFNRGEC",Ho/Con_2b,175 % of HoCon Ab GpH7-B3/GpL16-k0
"GpH7-B3 variant S337_07I/GpL16-k0 (antibody, human IgG1, kappa, also called Ho Ab S337_07I) heavy: not shown light: DIVMTQSPLSLPVTPGEPASISCQASESLVHSNRNTYLHWYLQKPGQSPQLLIYKVSNRFSGVPDRFSGSGSGTDFTLKISRVEAEDVGVYYCSQNTHVPPTFGQGTKVEIERTVAAPSVFIFPPSDEQLKSGTASVVCLLNNFYPREAKVQWKVDNALQSGNSQESVTEQDSKDSTYSLSSTLTLSKADYEKHKVYACEVTHQGLSSPVTKSFNRGEC",Ho/Con_2b,96.6 % of HoCon Ab GpH7-B3/GpL16-k0
"GpH7-B3 variant S239_05P/GpL16-k0 (antibody, human IgG1, kappa, also called Ho Ab S239_05P) heavy: not shown light: DIVMTQSPLSLPVTPGEPASISCQASESLVHSNRNTYLHWYLQKPGQSPQLLIYKVSNRFSGVPDRFSGSGSGTDFTLKISRVEAEDVGVYYCSQNTHVPPTFGQGTKVEIERTVAAPSVFIFPPSDEQLKSGTASVVCLLNNFYPREAKVQWKVDNALQSGNSQESVTEQDSKDSTYSLSSTLTLSKADYEKHKVYACEVTHQGLSSPVTKSFNRGEC",Ho/Con_2b,61 % of HoCon Ab GpH7-B3/GpL16-k0
"GpH7-B3 variant S239_03V/GpL16-k0 (antibody, human IgG1, kappa, also called Ho Ab S239_03V) heavy: not shown light: DIVMTQSPLSLPVTPGEPASISCQASESLVHSNRNTYLHWYLQKPGQSPQLLIYKVSNRFSGVPDRFSGSGSGTDFTLKISRVEAEDVGVYYCSQNTHVPPTFGQGTKVEIERTVAAPSVFIFPPSDEQLKSGTASVVCLLNNFYPREAKVQWKVDNALQSGNSQESVTEQDSKDSTYSLSSTLTLSKADYEKHKVYACEVTHQGLSSPVTKSFNRGEC",Ho/Con_2b,108 % of HoCon Ab GpH7-B3/GpL16-k0
"GpH7-B3 variant P331_06M/GpL16-k0 (antibody, human IgG1, kappa, also called Ho Ab P331_06M) heavy: not shown light: DIVMTQSPLSLPVTPGEPASISCQASESLVHSNRNTYLHWYLQKPGQSPQLLIYKVSNRFSGVPDRFSGSGSGTDFTLKISRVEAEDVGVYYCSQNTHVPPTFGQGTKVEIERTVAAPSVFIFPPSDEQLKSGTASVVCLLNNFYPREAKVQWKVDNALQSGNSQESVTEQDSKDSTYSLSSTLTLSKADYEKHKVYACEVTHQGLSSPVTKSFNRGEC",Ho/Con_2b,71.5 % of HoCon Ab GpH7-B3/GpL16-k0
"GpH7-B3 variant P271_09D/GpL16-k0 (antibody, human IgG1, kappa, also called Ho Ab P271_09D) heavy: not shown light: DIVMTQSPLSLPVTPGEPASISCQASESLVHSNRNTYLHWYLQKPGQSPQLLIYKVSNRFSGVPDRFSGSGSGTDFTLKISRVEAEDVGVYYCSQNTHVPPTFGQGTKVEIERTVAAPSVFIFPPSDEQLKSGTASVVCLLNNFYPREAKVQWKVDNALQSGNSQESVTEQDSKDSTYSLSSTLTLSKADYEKHKVYACEVTHQGLSSPVTKSFNRGEC",Ho/Con_2b,100 % of HoCon Ab GpH7-B3/GpL16-k0
"GpH7-B3 variant S298_06M/GpL16-k0 (antibody, human IgG1, kappa, also called Ho Ab S298_06M) heavy: not shown light: DIVMTQSPLSLPVTPGEPASISCQASESLVHSNRNTYLHWYLQKPGQSPQLLIYKVSNRFSGVPDRFSGSGSGTDFTLKISRVEAEDVGVYYCSQNTHVPPTFGQGTKVEIERTVAAPSVFIFPPSDEQLKSGTASVVCLLNNFYPREAKVQWKVDNALQSGNSQESVTEQDSKDSTYSLSSTLTLSKADYEKHKVYACEVTHQGLSSPVTKSFNRGEC",Ho/Con_2b,101 % of HoCon Ab GpH7-B3/GpL16-k0
"GpH7-B3 variant P331_07I/GpL16-k0 (antibody, human IgG1, kappa, also called Ho Ab P331_07I) heavy: not shown light: DIVMTQSPLSLPVTPGEPASISCQASESLVHSNRNTYLHWYLQKPGQSPQLLIYKVSNRFSGVPDRFSGSGSGTDFTLKISRVEAEDVGVYYCSQNTHVPPTFGQGTKVEIERTVAAPSVFIFPPSDEQLKSGTASVVCLLNNFYPREAKVQWKVDNALQSGNSQESVTEQDSKDSTYSLSSTLTLSKADYEKHKVYACEVTHQGLSSPVTKSFNRGEC",Ho/Con_2b,63.3 % of HoCon Ab GpH7-B3/GpL16-k0
"GpH7-B3 variant P331_15Y/GpL16-k0 (antibody, human IgG1, kappa, also called Ho Ab P331_15Y) heavy: not shown light: DIVMTQSPLSLPVTPGEPASISCQASESLVHSNRNTYLHWYLQKPGQSPQLLIYKVSNRFSGVPDRFSGSGSGTDFTLKISRVEAEDVGVYYCSQNTHVPPTFGQGTKVEIERTVAAPSVFIFPPSDEQLKSGTASVVCLLNNFYPREAKVQWKVDNALQSGNSQESVTEQDSKDSTYSLSSTLTLSKADYEKHKVYACEVTHQGLSSPVTKSFNRGEC",Ho/Con_2b,111 % of HoCon Ab GpH7-B3/GpL16-k0
"GpH7-B3 variant S267_01G/GpL16-k0 (antibody, human IgG1, kappa, also called Ho Ab S267_01G) heavy: not shown light: DIVMTQSPLSLPVTPGEPASISCQASESLVHSNRNTYLHWYLQKPGQSPQLLIYKVSNRFSGVPDRFSGSGSGTDFTLKISRVEAEDVGVYYCSQNTHVPPTFGQGTKVEIERTVAAPSVFIFPPSDEQLKSGTASVVCLLNNFYPREAKVQWKVDNALQSGNSQESVTEQDSKDSTYSLSSTLTLSKADYEKHKVYACEVTHQGLSSPVTKSFNRGEC",Ho/Con_2b,97 % of HoCon Ab GpH7-B3/GpL16-k0
"GpH7-B3 variant P331_10E/GpL16-k0 (antibody, human IgG1, kappa, also called Ho Ab P331_10E) heavy: not shown light: DIVMTQSPLSLPVTPGEPASISCQASESLVHSNRNTYLHWYLQKPGQSPQLLIYKVSNRFSGVPDRFSGSGSGTDFTLKISRVEAEDVGVYYCSQNTHVPPTFGQGTKVEIERTVAAPSVFIFPPSDEQLKSGTASVVCLLNNFYPREAKVQWKVDNALQSGNSQESVTEQDSKDSTYSLSSTLTLSKADYEKHKVYACEVTHQGLSSPVTKSFNRGEC",Ho/Con_2b,92.3 % of HoCon Ab GpH7-B3/GpL16-k0
